Laboratory results: PMC3155019, “Dynamics of the Phosphoinositide 3-Kinase p110δ Interaction with p85α and Membranes Reveals Aspects of Regulation Distinct from p110α” (Structure(London, England:1993), 2011)
Non-standard residues stand in square brackets, D forms with d. No end group written: not given here. pY = N[C@@H](Cc1ccc(OP(=O)(O)O)cc1)C(=O)O

Biological target: p110δ+p85α nicSH2 complex (human | , UniProt O00329 1-1044; P27986 322-724)
Assay: cell-based or functional assay

p110δ+p85α nicSH2 complex, sequence (O00329 whole entry, stated change not applied, chain 1 of 2): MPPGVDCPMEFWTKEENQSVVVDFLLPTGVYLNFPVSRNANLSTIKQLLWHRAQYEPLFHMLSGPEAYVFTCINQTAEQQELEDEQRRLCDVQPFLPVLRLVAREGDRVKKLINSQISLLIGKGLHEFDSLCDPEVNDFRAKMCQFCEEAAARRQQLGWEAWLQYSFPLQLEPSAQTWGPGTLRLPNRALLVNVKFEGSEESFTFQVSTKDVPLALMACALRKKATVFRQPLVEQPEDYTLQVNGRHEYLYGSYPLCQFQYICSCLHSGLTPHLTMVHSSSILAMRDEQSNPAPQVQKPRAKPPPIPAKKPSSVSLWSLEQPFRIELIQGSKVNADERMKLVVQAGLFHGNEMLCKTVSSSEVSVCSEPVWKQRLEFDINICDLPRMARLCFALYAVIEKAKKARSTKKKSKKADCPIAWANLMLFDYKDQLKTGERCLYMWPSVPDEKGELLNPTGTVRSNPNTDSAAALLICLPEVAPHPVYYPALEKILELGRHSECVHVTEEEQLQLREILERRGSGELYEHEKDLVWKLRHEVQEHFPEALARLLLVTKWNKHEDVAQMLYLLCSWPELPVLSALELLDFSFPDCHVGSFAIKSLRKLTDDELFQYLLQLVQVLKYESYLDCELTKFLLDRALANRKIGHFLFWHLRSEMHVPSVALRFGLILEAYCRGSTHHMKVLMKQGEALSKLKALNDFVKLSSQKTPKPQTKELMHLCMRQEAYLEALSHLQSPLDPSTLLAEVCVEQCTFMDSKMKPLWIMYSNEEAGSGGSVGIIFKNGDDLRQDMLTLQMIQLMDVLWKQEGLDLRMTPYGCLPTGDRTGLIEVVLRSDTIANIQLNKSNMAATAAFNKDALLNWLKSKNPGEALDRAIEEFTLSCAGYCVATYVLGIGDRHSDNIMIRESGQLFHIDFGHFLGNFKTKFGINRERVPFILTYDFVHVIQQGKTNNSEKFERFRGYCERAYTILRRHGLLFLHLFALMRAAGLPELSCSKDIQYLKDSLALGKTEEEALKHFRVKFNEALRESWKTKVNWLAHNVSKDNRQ
p110δ+p85α nicSH2 complex, sequence (P27986 322-724, stated change not applied, chain 2 of 2): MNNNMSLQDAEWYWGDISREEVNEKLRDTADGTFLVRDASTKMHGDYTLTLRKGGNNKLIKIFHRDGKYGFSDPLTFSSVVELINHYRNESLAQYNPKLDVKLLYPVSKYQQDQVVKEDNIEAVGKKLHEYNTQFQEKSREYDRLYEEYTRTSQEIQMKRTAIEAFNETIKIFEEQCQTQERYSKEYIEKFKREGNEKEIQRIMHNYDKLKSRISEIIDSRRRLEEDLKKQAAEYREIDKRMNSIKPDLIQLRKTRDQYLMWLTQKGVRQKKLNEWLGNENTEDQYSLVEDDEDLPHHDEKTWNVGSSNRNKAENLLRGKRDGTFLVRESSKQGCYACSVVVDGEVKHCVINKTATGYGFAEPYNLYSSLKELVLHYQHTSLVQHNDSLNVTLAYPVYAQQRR

B1: PDGFR bis-phosphorylated pY peptide (residues 735–767, with pY740 and pY751) (peptide)
peptide: ESDGG[pY]MDMSKDESID[pY]VPMLDMKGDIKYADIE
activation of the lipid kinase activity of p110δ+nicSH2 by 10 μM PDGFR pY: ~13 fold
